Measurements from patent US20070136826A1 (Biogen, published 2007).
One block for each molecule: values may come before it.

Assays:
[1] = biological target: Mouse CD20 (endogenous, on mouse B cell lines and splenic B cells) (mouse) (UniProt P19437); assay: flow cytometry on A20 cells; isotype control, PE-anti-mouse IgG2b
[2] = biological target: Mouse CD20 (endogenous, on mouse B cell lines and splenic B cells) (mouse) (UniProt P19437); assay: flow cytometry on NS-1 cells; isotype control, PE-anti-mouse IgG2b
[3] = biological target: Mouse CD20 with C-terminal Idectin peptide tag, on transfected CHO cells (mouse) (UniProt P19437); assay: flow cytometry on CHO-CD20 cells; isotype control, PE-anti-mouse IgG2b
[4] = biological target: Mouse CD20 (endogenous, on mouse B cell lines and splenic B cells) (mouse) (UniProt P19437); assay: flow cytometry on WEHI 279 cells; isotype control, PE-anti-mouse IgG2b
[5] = biological target: Mouse CD20 (endogenous, on mouse B cell lines and splenic B cells) (mouse) (UniProt P19437); assay: flow cytometry on BCL 1/3B3 cells; isotype control, PE-anti-mouse IgG2b
[6] = biological target: Mouse CD20 with C-terminal V5 peptide tag, on transfected 300.18 cells (mouse) (UniProt P19437); assay: flow cytometry on 300.18-CD20 cells; isotype control, PE-anti-mouse IgG2b
[7] = biological target: Mouse CD20 (endogenous, on mouse B cell lines and splenic B cells) (mouse) (UniProt P19437); assay: flow cytometry on wild type C57Bl/6 splenocytes; isotype control, PE-anti-mouse IgG2b
[8] = biological target: T1, Mouse CD20 with C-terminal Idectin peptide tag, on transfected CHO cells (mouse, UniProt P19437 1-291); assay: flow cytometry on transfected CHO cells
T1 construct: also called CHO-CD20; CHO cells transfected with mouse CD20; not shown: Idectin peptide tag at the 3' end of the gene (N5K-CtIdectin-B7.1-Ig vector)
T1 sequence: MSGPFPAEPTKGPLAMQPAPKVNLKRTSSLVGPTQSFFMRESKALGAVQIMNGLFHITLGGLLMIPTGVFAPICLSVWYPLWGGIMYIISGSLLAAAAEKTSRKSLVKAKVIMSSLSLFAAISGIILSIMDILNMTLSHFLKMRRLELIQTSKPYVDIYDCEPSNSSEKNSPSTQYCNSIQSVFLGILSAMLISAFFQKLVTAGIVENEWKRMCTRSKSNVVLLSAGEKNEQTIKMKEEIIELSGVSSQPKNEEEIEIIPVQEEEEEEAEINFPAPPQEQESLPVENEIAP
Method: (§1) Cell Staining and Flow Cytometry Analyses. All staining procedures were done in round bottom 96-well plates (Corning 3799) in FACS buffer (Dulbecco's PBS supplemented with 2% FBS, 0.05% sodium azide, 10% normal goat serum (heat inactivated), and 2.4G2 (1 ug/ml). None of the monoclonal secondary antibodies used recognized rat IgG2b (the 2.4G2 antibody). Cells (1×10⁵ to 1×10⁶) were incubated with primary or secondary antibodies for 45 minutes each on ice, washed between incubations, and resuspended at 1×10⁶ cells/ml in FACS buffer for analyses. Fluorescence was measured on a FACSArray or FACSCalibur and analyzed with BD FACSArray System Software or Cell Quest Pro software.

[9] = biological target: T2, Mouse CD20 with C-terminal V5 peptide tag, on transfected 300.18 cells (mouse, UniProt P19437 1-291); assay: flow cytometry on transfected 300.18 cells
T2 sequence: T1 sequence
Method: as §1

[10] = biological target: T3, Mouse CD20 (endogenous, on mouse B cell lines and splenic B cells) (mouse, UniProt P19437 1-291); assay: summary of Example 1; flow cytometry on cells
T3 construct: also called mCD20
T3 sequence: T1 sequence
Method: as §1

Rat CD20 = biological target: T4, Rat CD20 (rat, UniProt D4A4Y3 1-287); assay: flow cytometry staining of rat splenic B cells and two rat B cell lines
T4 construct: whole, on cells; also called CD20 on rat splenic B cells and rat B cell lines
T4 sequence: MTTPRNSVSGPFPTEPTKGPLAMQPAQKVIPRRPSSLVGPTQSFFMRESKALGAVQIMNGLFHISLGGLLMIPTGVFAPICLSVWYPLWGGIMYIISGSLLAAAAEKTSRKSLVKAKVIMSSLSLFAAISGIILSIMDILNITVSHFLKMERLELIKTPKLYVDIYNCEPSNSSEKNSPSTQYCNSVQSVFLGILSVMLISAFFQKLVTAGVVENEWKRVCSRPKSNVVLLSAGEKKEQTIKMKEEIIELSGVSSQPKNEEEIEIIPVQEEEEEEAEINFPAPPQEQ

geometric mean of fluorescence intensity [1]: 3.4 | geometric mean of fluorescence intensity [2]: 3.8 | geometric mean of fluorescence intensity [3]: 3.6 | geometric mean of fluorescence intensity [4]: 5.9 | geometric mean of fluorescence intensity [5]: 4.2 | geometric mean of fluorescence intensity [6]: 4.1 | geometric mean of fluorescence intensity [7]: 3.8
Molecule: IgG2b isotype control antibody

binding result [8]: binds | binding result [9]: binds | binding result [10]: binds | binding result (Rat CD20): no binding
B1: 18B12 IgG1 mouse anti-mouse CD20 monoclonal antibody (antibody, V domains shown)
VH: QVQLQQPGAELVRPGTSVKLSCKASGYTFTSYWMHWIKQRPGQGLEWIGVIDPSDNYTKYNQKFKGKATLTVDTSSSTAYMQLSSLTSEDSAVYFCAREGYYGSSPWFAYWGQGTLVTVSS
VL: QIVMSQSPAILSASPGEKVTMTCRARSSVSYIHWYQQKPGSSPKPWIYATSNLASGVPGRFSGSGSGTSYSLTITRVEAEDAATYYCQQWSSKPPTFGGGTKLEIKR
modifications: N-terminal pyroglutamic acid (N-terminal glutamine blocked)
notes: also called 18B12 antibody; 18B12-A1C3-H3
